Results: patent US20040086988

Tests used:
[1] = tested on: D-isomer of the substrate Ac-Thr-Ile-Nle-Nle-Gln-Arg.amide
[2] = tested on: D-fluorogenic substrate 2-aminobenzoyl-Thr-Ile-Nle-Phe(p-NO2)-Gln-Arg.amide
[3] = tested on: L-isomer of the substrate Ac-Thr-Ile-Nle-Nle-Gln-Arg.amide
[4] = tested on: L-fluorogenic substrate 2-aminobenzoyl-Thr-Ile-Nle-Phe(p-NO2)-Gln-Arg.amide

Row | Substance | cleavage of hexapeptide substrate (RP HPLC, products identified by ion spray MS) [1] | cleavage of the chiral fluorogenic substrate (fluorogenic assay, corresponding chiral substrate) [2] | cleavage of hexapeptide substrate (RP HPLC, products identified by ion spray MS) [3] | cleavage of fluorogenic substrate (increase in fluorescence) [2] | cleavage of fluorogenic substrate (increase in fluorescence) [4] | cleavage of the chiral fluorogenic substrate (fluorogenic assay, corresponding chiral substrate) [4]
1 | D-[Aba^67.95(CO-S)^51-52]2 HIV-1 PR | The D-enzyme cleaves only the D-substrate | the cleavage of chiral fluorogenic substrates by the D- and L-HIV-1 PR analogues | is inactive on the L-substrate |  |  | 
2 | L-[Aba^67.95.167.195]HIV-1 protease (HIV-1 PR) |  |  |  | the L-enzyme cleaved only the L-substrate (D-substrate not cleaved) | the L-enzyme cleaved only the L-substrate | 
3 | D-[Aba^67.95.167.195]HIV-1 protease (HIV-1 PR) |  |  |  | the D-enzyme cleaved only the corresponding D-substrate | the D-enzyme cleaved only the corresponding D-substrate (L-substrate not cleaved) | 
4 | L-[Aba^67.95(CO-S)^51-52]2 HIV-1 PR | is inactive towards the D-substrate |  | the L-enzyme shows full activity towards the L-substrate |  |  | the cleavage of chiral fluorogenic substrates by the D- and L-HIV-1 PR analogues
